Columns and labels:
[1] = target: His-TMPRSS2 (transmembrane serine protease 2 with N-terminal 6x histidines) (UniProt O15393); assay: […]
[2] = target: VF-TMPRSS2 (transmembrane serine protease 2 with N-terminal Venus-FLAG) (UniProt O15393); assay: […]
VF-TMPRSS2 (transmembrane serine protease 2 with N-terminal Venus-FLAG), sequence (O15393 whole entry): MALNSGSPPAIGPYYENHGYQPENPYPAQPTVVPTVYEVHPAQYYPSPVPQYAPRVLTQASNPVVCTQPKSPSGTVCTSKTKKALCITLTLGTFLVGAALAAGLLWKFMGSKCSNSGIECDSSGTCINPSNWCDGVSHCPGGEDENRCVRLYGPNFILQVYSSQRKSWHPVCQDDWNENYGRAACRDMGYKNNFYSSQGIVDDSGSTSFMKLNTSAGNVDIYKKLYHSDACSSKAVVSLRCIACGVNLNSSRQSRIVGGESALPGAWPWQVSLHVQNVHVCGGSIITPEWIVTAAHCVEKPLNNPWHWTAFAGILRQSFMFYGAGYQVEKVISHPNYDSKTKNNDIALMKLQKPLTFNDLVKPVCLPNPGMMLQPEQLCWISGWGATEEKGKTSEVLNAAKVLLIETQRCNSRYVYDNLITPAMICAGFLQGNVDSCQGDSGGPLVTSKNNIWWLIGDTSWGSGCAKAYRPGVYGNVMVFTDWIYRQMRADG

His-TMPRSS2 (transmembrane serine protease 2 with N-terminal 6x histidines), sequence (O15393 whole entry): as above

Substance | S/B ratio (TR-FRET signal-to-background) [1] | S/B ratio (TR-FRET signal-to-background) [2]
SPIKE-FLAG (SARS-CoV-2 SPIKE glycoprotein with C-terminal FLAG) (from UniProt P0DTC2 14-1273) (natural protein) | > 23 | 
SPIKE-VF (SARS-CoV-2 SPIKE glycoprotein with C-terminal Venus-FLAG) (from UniProt P0DTC2 14-1273) (natural protein) | 23 | 
SPIKE-His (SARS-CoV-2 SPIKE glycoprotein with C-terminal 6x histidines) (from UniProt P0DTC2 14-1273) (natural protein) |  | > 23

— paper PMC10399917 (Journal of Molecular Cell Biology, 2023)
